We go through three substances from patent US20070087411A1.

For the experiment, the target named is recombinant human IL-1β (human) (UniProt P01584). Put plainly: cell-based or functional assay.
Sequence of UniProt P01584 (P01584 117-269 limits assumed): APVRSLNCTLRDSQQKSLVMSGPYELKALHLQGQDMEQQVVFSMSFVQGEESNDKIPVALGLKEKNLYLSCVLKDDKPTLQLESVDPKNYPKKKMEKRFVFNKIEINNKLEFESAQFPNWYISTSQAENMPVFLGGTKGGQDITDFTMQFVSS
Regarding “hIL-1RAcp.hIL-1R1.myc.myc.His6 (receptor)”, the IC50 pM (HEK293/NFκB-luciferase bioassay, IL-1β at 4 pM) came out at 3400 pM.

In the case of “hIL-1RI.TG.hFc.ARA.CTP.TG.hFc.ARA.hIL-1RAcP (Fc fusion)”, the IC50 pM (HEK293/NFκB-luciferase bioassay, IL-1β at 4 pM) was 23 pM.

On to “hIL-1RAcp.hIL-1R1.TG.hFc.ARA.CTP.TG.hFc (Fc fusion)”, for which the IC50 pM (HEK293/NFκB-luciferase bioassay, IL-1β at 4 pM) is 100 pM.
